# According to patent US20150218285A1 (TORAY INDUSTRIES, published 2015):
# Substitutions are numbered along the chain they refer to.
# T1: CAPRIN-1 protein on the cell surface of human cancer cells (human, UniProt Q14444 2-709)
# T1 sequence (looked up): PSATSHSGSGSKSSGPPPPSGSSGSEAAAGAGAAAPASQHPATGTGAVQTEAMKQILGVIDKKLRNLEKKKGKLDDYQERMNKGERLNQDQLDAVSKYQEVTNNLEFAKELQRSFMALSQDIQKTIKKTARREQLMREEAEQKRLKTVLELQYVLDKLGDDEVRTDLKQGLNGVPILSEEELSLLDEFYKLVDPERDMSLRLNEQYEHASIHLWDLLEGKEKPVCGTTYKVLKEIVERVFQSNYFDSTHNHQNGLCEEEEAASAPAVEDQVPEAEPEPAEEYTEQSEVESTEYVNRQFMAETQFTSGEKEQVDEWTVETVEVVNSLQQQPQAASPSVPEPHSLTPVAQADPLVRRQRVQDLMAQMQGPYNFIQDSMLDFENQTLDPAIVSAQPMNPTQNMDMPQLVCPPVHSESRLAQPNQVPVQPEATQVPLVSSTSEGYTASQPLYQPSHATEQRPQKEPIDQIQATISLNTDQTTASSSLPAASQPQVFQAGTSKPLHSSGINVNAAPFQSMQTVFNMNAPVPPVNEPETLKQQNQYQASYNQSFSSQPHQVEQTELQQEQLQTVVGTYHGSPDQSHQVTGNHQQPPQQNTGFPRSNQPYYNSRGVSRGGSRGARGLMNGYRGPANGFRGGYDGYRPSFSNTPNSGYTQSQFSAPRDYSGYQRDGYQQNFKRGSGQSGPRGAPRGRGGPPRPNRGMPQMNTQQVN
# B1: human-mouse chimeric anti-CAPRIN-1 antibody #36 (antibody, human IgG1, kappa)
# heavy: not shown
# light: QDELSNPVTSGESVSISCRSSKSLLYKDGKTYLNWFLQRPGQSPQLLIYLMSTRASGVSDRFSGSGSGTDFTLEISRVKAEDVGVYYCQQLVEDPLTFGAGTKLELKRTVAAPSVFIFPPSDEQLKSGTASVVCLLNNFYPREAKVQWKVDNALQSGNSQESVTEQDSKDSTYSLSSTLTLSKADYEKHKVYACEVTHQGLSSPVTKSFNRGEC
# B2: human-mouse chimeric anti-CAPRIN-1 antibody #34 (antibody, human IgG1, kappa, V domains shown)
# VH: GAELVRPGTSVKVSCKASVYAFTNYLIEWVKQRPGQGLEWIGVINPKSGGTKYNEKFRGKATLTADKSSSTAYMQLSSLTSGDSAVYFCAITGTDYWGQGTTLTVSS
# VL: QGTRCDIQMTQTTSSLSASLGDRVTISCSASQGINNYLNWYQQKPDGTVKLLIYYTSSLRSGVPSRFSGSGSGTDYSLTISNLEPEDVATYYCQQYSKLPRTFGGGTKLEIKR
# B3: mouse monoclonal antibody #8 (antibody, V domains shown)
# VH: GGGLVKPGGSLKLSCAASGFAFSSYDMSWIRQTPEKRLEWVAYISSGAGSTYYPDTVKGRFTVSRDNAKNTLYLQMSSLKSEDTAMYYCARHFYRFDYWGQGTTVTVSS
# VL: SIVMTQTPKFLLVSAGDRITITCKASQSVSNDVAWYQQKPGQSPKLLIYYASNRYTGVPDRFTGSGYGTDFTFTISTVQAEDLAVYFCQQDDRFPLTFGAGPS
# notes: mouse hybridoma antibody; also called anti-CAPRIN-1 monoclonal antibody #8
# B4: human-mouse chimeric anti-CAPRIN-1 antibody #29 (antibody, human IgG1, kappa)
# heavy: not shown
# light: GTCGDIVMSQSPSSLAVSAGEKVTMSCKSSQSLLNSRTRKNYLAWVQHKPGQSPRLLIYWASTRESGVPDRFTGSGSGTDFTLTISSVQAEDLAVYYCRQSYNLVTFGAGPSTVAAPSVFIFPPSDEQLKSGTASVVCLLNNFYPREAKVQWKVDNALQSGNSQESVTEQDSKDSTYSLSSTLTLSKADYEKHKVYACEVTHQGLSSPVTKSFNRGEC
# B5: human-mouse chimeric anti-CAPRIN-1 antibody #28 (antibody, human IgG1, kappa, V domains shown)
# VH: GPDLVKPGASVKISCKASGYSFTAYYMHWVKQSHGKSLEWIGRVNPNNGGTTYNQKFKGKAILTVDKSSSTAYMELRSLTFEDSAVYYCARRIYYGYFDYWGQGTTVTVSS
# VL: AFFAVSLGQRATISCKASQSVDYDGDSYMNWYQQKPGQPPKLLIYVASNLESGVPARFSGSGSGTDFTLNIHPVEEEDAATYYCQQSNEDPYTFGGGTKLEIKQ
# B6: human-mouse chimeric anti-CAPRIN-1 antibody #26 (antibody, human IgG1, kappa)
# heavy: not shown
# light: PASSSDVLMTQTPLSLPVRLGDQSSISCRSSQSIVHSNGNTYLEWYLQKPGQSPKLLIYKVSNRFSGVPDRFSGSGSGTDFTLKISRVEPEDLGVYYCFQGSHVPYTSEGDQAEIKLATVAAPSVFIFPPSDEQLKSGTASVVCLLNNFYPREAKVQWKVDNALQSGNSQESVTEQDSKDSTYSLSSTLTLSKADYEKHKVYACEVTHQGLSSPVTKSFNRGEC
# B7: human-mouse chimeric anti-CAPRIN-1 antibody #25 (antibody, human IgG1, kappa, V domains shown)
# VH: GPGLVQPSQSLSITCTVSGFSLTTYDLHWVRQSPGKGLEWLGVIWSGGSTDYNAAFISRLSISKDNSKSQVFFKMNSLQANDTAIYYCARNYGYSAWFAYWGQGTLVTVSA
# VL: DVLMTQTPLSLPVSLGDQASISCRSSQSIVHSNGNTYLEWYLQKPGQSPKLLIYKVSNRFSGVPDRFSGSGSGTDFTLKISRVEAEDLGVYYCFQGSHVPLTFGAGTKLELKR
# B8: human-mouse chimeric anti-CAPRIN-1 antibody #27 (antibody, human IgG1, kappa, V domains shown)
# VH: GGGLVQPGGSMRLSCVASGFTFSNSWFNWVRQSPEKGLEWVAEIRLTSDNYAIYYAESVKGRFTISRDDSKSSVYLQMNNLRAEDTGIYYCTRPETARATFAYWGQGTTVTVSS
# VL: B7 VL with L51V, S57F, L101R, A105G, E110N, L111Q, K112T, R113G
# B9: human-chicken chimeric antibody #2 (antibody, human IgG1, kappa, V domains shown)
# VH: AVTLDESGGGLQTPGGGLSLVCKASGFTFSSFDMGWVRQAPGKGLEFVAQINDAGSRTWYATAVKGRATISRDNGQTTVRLQLNNLRAEDTGTYYCTRGSGYVGAGAIDAWGHGTEVIVSA
# VL: AALTQPSSVSANPGETVKITCSGGSGYYGWYQQQKSPGSAPVTVIYQNDKRPSDIPSRFSGSGSGSTNTLTITGVQAEDEAVYFCGRYDSTDSGIFGAGTTLTVLT
# B10: human-mouse chimeric anti-CAPRIN-1 antibody #23 (antibody, human IgG1, kappa, V domains shown)
# VH: GGGLVKPGGSLKLSCAASGFTFSSYGMSWVRQTPEKRLEWVATISSGGSYTYYPDSVKGRFTISRDNAKNTLYLQMSSLRSEDTAMYYCASLASYYFDYWGQGTTLTVSS
# VL: GARCDVQMIQSPSSLSASLGDIVTMTCQASQGTSINLNWFQQKPGKAPKLLIYGASSLEDGVPSRFSGSCFGTDFTLTISSLEDEDMATYFCLQHSYLPPLTFGAGTKLELKR
# B11: human-mouse chimeric anti-CAPRIN-1 antibody #24 (antibody, human IgG1, kappa, V domains shown)
# VH: B10 VH
# VL: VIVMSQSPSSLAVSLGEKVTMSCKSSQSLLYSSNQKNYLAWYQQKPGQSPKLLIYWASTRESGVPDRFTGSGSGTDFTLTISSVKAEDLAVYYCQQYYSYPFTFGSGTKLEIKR
# B12: human-mouse chimeric anti-CAPRIN-1 antibody #30 (antibody)
# heavy: not shown
# light: DVQITQSPSYLAASPGETITINCRASKSISKYLAWYQEKPGKTNKLLIYSGSTLQSGIPSRFSGSGSGTDFTLTISSLEPEDFAMYYCQQHNEYPYTFGGGTKLEIKRTVAAPSVFIFPPSDEQLKSGTASVVCLLNNFYPREAKVQWKVDNALQSGNSQESVTEQDSKDSTYSLSSTLTLSKADYEKHKVYACEVTHQGLSSPVTKSFNRGEC
# B13: human-mouse chimeric anti-CAPRIN-1 antibody #31 (antibody, human IgG1, kappa)
# heavy: not shown
# light: B12 light with Y96W
# B14: mouse monoclonal antibody #6 (antibody)
# chain 1: DAELVKPGASVKISCKASGYTFTDHSIHWVQQKPEQGLEWIGYISPGNGNIKYNEKFKGKATLTADKSSSTAYMQLNSLTSEDSAVYFCKRSLGRGGPYYFDYWGQGTTVTVSS
# chain 2: DIVLTQAAPSLPVTPGESVSISCRSSKSLLHSNGNTYLYWFLQRPGQSPQLLIYRMSNLASGVPDRFSGSGSGTAFTLRISRVEAEDVGVYYCMQHREYPVTFGSGPN
# B15: mouse-chicken chimeric antibody #2 (antibody, mouse IgG1, V domains shown)
# VH: AVTLDESGGGLQTPGGGLSLVCKASGFTFSSFDMGWVRQAPGKGLEFVAQINDAGSRTWYATAVKGRATISRDNGQTTVRLQLNNLRAEDTGTYYCTRGSGYVGAGAIDAWGHGTEVIVS
# VL: AALTQPSSVSANPGETVKITCSGGSGYYGWYQQQKSPGSAPVTVIYQNDKRPSDIPSRFSGSGSGSTNTLTITGVQAEDEAVYFCGRYDSTDSGIFGAGTTLTVL
# B16: mouse-chicken chimeric antibody #3 (antibody, mouse IgG1, V domains shown)
# VH: AVTLDESGGGLQTPGGALSLVCKASGFTFSGYDMLWVRQAPGKGLEWVAGIGSTGGGTDYGAAVKGRATISRDNGQSTVRLQLNNLRAEDTATYYCAKVAGGCNSGYCRDSPGSIDAWGHGTEVIVS
# VL: AVTQQPASVSANPGETVKITCSGGGSRNYYGWYQQKSPGSVPVTVIYYDDQRPSNIPSRFSGALSGSTSTLTITGVQADDEAVYFCGSADSNTYEGSFGAGTTLTVL
# B17: mouse-chicken chimeric antibody #1 (antibody, mouse IgG1, V domains shown)
# VH: AVTLDESGGGLQMSRGGLSLVCKASGFDFSSYQMNWIRQAPGKGLEFVAAINKFGNSTGHGAAVKGRVTISRDNGQSTVRLQLNNLRAEDTAIYFCTKHAYGYCGSGTWCAAGEIDAWGHGTEVIVSS
# VL: QAASTQPSSVSANPGETVEITCSGGGSYSYGWFQQKSPGSAPVTVIYYNNKRPSDIPSRFSGSKSGSTGTLTITGVQADDEAVYYCGSGDSTDTAVFGAGTTLTVLG
# Molecular target: T1, CAPRIN-1 protein on the cell surface of …
# Experiment: cell-based or functional assay
Binder,"cytotoxicity (ADCC, 51Cr release, human NK cells) on Hep3B, HepG2, SK-Hep-1, SW480 [%]","cytotoxicity (ADCC, 51Cr release) on SK-Hep-1 [%]","ADCC activity on Hep3B, HepG2, SK-Hep-1, SW480 [%]"
B1,≥ 20,–,–
B2,≥ 20,–,–
B3,–,≥ 12,–
B4,–,–,≥ 20
B5,–,–,≥ 20
B6,–,–,≥ 20
B7,–,–,≥ 20
B8,–,–,≥ 20
B9,–,≥ 12,–
B10,–,–,≥ 20
B11,–,–,≥ 20
B12,≥ 20,–,–
B13,≥ 20,–,–
B14,–,≥ 12,–

# Molecular target: T1, CAPRIN-1 protein on the cell surface of …
# Experiment: flow cytometry on Hep3B, HepG2, SK-Hep-1, SW480; culture supernatant; vs isotype control
# Method: Subsequently, four liver cancer cell lines (Hep3 GB, HepG2, SK-Hep-1, and SW480), which were confirmed to express a CAPRIN-1 gene, were investigated for whether or not a CAPRIN-1 protein is expressed on the surfaces of these cells. 1×10⁶ cells of each cell line were centrifuged with a 1.5-mL micro centrifugation tube. To the cells was added the culture supernatant (100 μL) containing any of mouse monoclonal antibodies #1 to #22 against a CAPRIN-1 protein reacting to cancer cell surface produced in Example 4 and mouse-chicken chimeric antibodies #1 to #3 against a CAPRIN-1 protein produced in the above (2), followed by being left to stand on ice for 1 hour. After washing with PBS, the cells were suspended in a FITC-labeled goat anti-mouse IgG antibody (manufactured by Invitrogen Corporation) diluted by 500-fold with PBS containing 0.1% FBS, followed by being left to stand on ice for 1 hour. After washing with PBS, the fluorescence intensity was measured with FACS Calibur available from Becton, Dickinson and Company. Separately, as a control, the same procedure as in above was performed using an iso-type control antibody, instead of the culture supernatants containing the mouse monoclonal antibodies #1 to #22 against a CAPRIN-1 protein and the mouse-chicken chimeric antibodies #1 to #3. As a result, the fluorescence intensity in the cells to which any of the monoclonal antibodies #1 to #22 and the mouse-chicken chimeric antibodies #1 to #3 was added was 20% or more higher than that in the control in every case. Specifically, in the case of using mouse-chicken chimeric antibody #1, the fluorescence intensity was enhanced by 200% or more in both SK-Hep-1 and Hep3B. […] The rate of increase in the fluorescence intensity is represented by the rate of increase in the mean fluorescence intensity (MFI value) in each cell and is calculated by the following calculation formula: […]
row,Binder,rate of increase in mean fluorescence intensity [%]
1,B3,≥ 20
2,B15,≥ 20
3,B16,≥ 20
4,B17,≥ 20
5,B14,≥ 20
